The values that follow come from patent publication US20240294607.

For the data set, the system named is T1, His-Tag-FGG (recombinant human fibrinogen gamma chain with N-terminal His-tag, produced in E. coli).
T1 sequence: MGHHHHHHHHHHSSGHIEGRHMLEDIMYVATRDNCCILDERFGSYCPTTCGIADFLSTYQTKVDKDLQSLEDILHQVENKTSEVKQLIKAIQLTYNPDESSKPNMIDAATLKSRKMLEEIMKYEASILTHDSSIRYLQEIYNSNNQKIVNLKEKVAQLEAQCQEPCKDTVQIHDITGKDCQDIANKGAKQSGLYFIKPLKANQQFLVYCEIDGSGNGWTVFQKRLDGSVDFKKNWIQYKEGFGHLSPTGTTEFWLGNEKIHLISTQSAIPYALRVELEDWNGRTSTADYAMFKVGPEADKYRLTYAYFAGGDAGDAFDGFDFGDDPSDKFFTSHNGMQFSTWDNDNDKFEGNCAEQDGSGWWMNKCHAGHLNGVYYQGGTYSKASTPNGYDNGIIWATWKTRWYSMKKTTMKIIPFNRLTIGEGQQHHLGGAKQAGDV

factor XIII: the “SDS-PAGE analysis of polymerization (crosslinking) of FGG with factor XIII” value was “recombinant FGG can be crosslinked by factor XIII and produces dimers (about 100 kDa) and higher molecular weight FGG structures”.
